For orientation: EC50 means the concentration giving half of the maximal effect. Low readings indicate a more potent agent, high ones a less potent agent. For orientation: Kd means the free concentration of one partner at which half of the binding sites on the other are occupied at equilibrium, for simple one-to-one binding. Higher therefore signals lower affinity.

In one assay the target is T1, human MICA002 on cells (human).
T1 chain: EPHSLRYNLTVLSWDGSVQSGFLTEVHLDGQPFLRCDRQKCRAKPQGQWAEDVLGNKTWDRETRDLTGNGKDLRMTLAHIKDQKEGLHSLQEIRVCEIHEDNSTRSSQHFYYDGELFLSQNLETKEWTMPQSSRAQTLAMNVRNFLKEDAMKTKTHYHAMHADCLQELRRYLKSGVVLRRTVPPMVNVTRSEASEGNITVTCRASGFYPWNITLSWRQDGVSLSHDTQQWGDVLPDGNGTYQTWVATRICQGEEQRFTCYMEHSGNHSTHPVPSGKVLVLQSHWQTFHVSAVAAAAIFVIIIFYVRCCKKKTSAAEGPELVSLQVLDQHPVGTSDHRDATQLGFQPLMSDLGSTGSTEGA
The experiment in a line: flow cytometry, CHO-MICA002 cells. For orientation: Flow cytometry measures light scatter and fluorescence of single cells or particles in a stream.

The next assay concerns the target T2, human MICA004 on cells (human).
T2 construct: whole, on cells; also called CHO-MICA004; C1R-MICA004
The assay can be described thus: flow cytometry, CHO-MICA004 cells.

Assay [1] deals with T3, human MICA008 on cells (human).
T3 construct: whole, on cells; also called CHO-MICA008; C1R-MICA008
The assay can be described thus: flow cytometry, CHO-MICA008 cells.
Procedure: (§1) IgG1 is an isotype control (IgG). The antibody binding signals of APC (gMFI) to MICA/B were measured by flow cytometry.
(§2) After an incubation time of 30 minutes, the plate was centrifuged and cells were washed with PBS three times. […] After mixing for 30 minutes at room temperature, cells were washed with PBS twice. Fluorescent signal was detected and quantified by flow cytometry (Attune™ CytPix™, ThermoFisher) within the population of live cells (viability dye PI negative).

The next assay has as its target T4, human MICB005 on cells (human).
T4 construct: whole, on cells; also called CHO-MICB005; C1R-MICB005
The experiment in a line: flow cytometry, CHO-MICB005 cells.

Assay [2] addresses T3, human MICA008 on cells. The experiment in a line: flow cytometry, HeLa cells (MICA008).
Procedure: as §1, §2
A further assay deals with T5, MICA002-ECD-HISAvi (human, UniProt Q29983 24-308).
T5 construct: also called MICA002 polypeptide
T5 chain: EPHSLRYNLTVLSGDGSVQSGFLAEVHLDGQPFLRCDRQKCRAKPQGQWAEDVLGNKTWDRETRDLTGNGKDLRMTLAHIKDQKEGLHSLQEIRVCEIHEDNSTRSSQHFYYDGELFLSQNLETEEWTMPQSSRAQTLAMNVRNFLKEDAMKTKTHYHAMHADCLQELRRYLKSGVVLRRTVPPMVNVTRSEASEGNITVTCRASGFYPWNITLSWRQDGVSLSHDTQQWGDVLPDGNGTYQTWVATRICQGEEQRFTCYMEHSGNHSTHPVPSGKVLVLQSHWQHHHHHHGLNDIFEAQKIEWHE
The assay can be described thus: SPR (Carterra); antibody captured by anti-human Fc, monomeric ECD antigen injected.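 Also: dissociation phase followed for about 10 min.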

The target of assay [3] is T6, MICA004-ECD-HISAvi (human).
T6 construct: also called MICA004 polypeptide
T6 chain: T5 chain with G14W, C36Y, L122V, M129V, K173E, G175S, T181R, G206S, W210R, S215T
The description is as above.
Procedure: (§3) The dissociation kinetics were monitored for approximately 10 minutes. The chip surface was regenerated between binding cycles with 10 mM glycine HCl, pH 1.7. Binding kinetics were analyzed using software supplied by the manufacturer.

Assay [4] addresses T7, MICA008-ECD-HISAvi (human).
T7 construct: Two sources under one name in the two kinetic assays; also called MICA008 polypeptide
T7 chain: T5 chain with G14W, C36Y, M129V, K173E, G206S, W210R, T213I, S215T, Q251R
The assay is described as above.
Procedure: as §3

Assay [5] has as its target T8, MICB005-ECD-HISAvi (human, UniProt Q29980 24-309).
T8 construct: Two sources under one name in the two kinetic assays; also called MICB005 polypeptide
T8 sequence: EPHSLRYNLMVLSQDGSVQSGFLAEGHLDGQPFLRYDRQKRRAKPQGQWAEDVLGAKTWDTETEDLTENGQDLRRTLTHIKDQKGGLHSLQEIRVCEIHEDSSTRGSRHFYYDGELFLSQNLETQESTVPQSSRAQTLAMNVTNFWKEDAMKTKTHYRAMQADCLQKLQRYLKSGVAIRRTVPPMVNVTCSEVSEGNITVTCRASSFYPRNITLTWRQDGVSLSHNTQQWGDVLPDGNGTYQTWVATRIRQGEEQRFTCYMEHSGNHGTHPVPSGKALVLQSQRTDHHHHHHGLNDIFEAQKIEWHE
The description is as above.
Procedure: as §3

Assay [6] addresses T8, MICB005-ECD-HISAvi. The assay can be described thus: BLI (GatorPrime); antibody on anti-hIgG Fc probe, monomeric antigen in solution.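 Also: binding kinetics of anti-MICA/B antibodies measured by biolayer interferometry, with dissociation followed for about 10 min.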
Procedure: (§4) The binding kinetics of the antibodies were also measured using the GatorPrime BLI (Biolayer Interferometry) system (Gator Bio, USA). Specifically, the anti-MICA/B antibodies were loaded with HFC (Anti-hIgG Fc, Gator Bio, Cat #: 160003). […] The dissociation kinetics were monitored for approximately 10 minutes. The probes were regenerated between binding cycles with Regeneration Buffer (Gator Bio, Cat #: 120012). Binding kinetics were analyzed using software supplied by the manufacturer.
A further assay deals with T9, MICA009Avi (human).
T9 construct: extracellular domain
The assay is described as above.

In assay [7] the target is T6, MICA004-ECD-HISAvi. The description is as above.
Procedure: as §4
Assay [8] has as its target T7, MICA008-ECD-HISAvi. Described as above.
Procedure: as §4

Where a chain is given by its changes, count along the chain named.

Procedure for MICA002-ECD-HISAvi: as §3
Procedure for MICA009Avi: as §4
Procedure for human MICA002 on cells: CHO-MICA002 cells were incubated with titrated anti-MICA/B antibodies and then APC-labeled anti-human Fc antibody. […] The antibody binding signals of APC (gMFI) to MICA/B were measured by flow cytometry.
as §2
Procedure for human MICA004 on cells: as §1, §2
Procedure for human MICB005 on cells: as §1, §2

B1: #38 (antibody, human IgG1, V domains shown)
VH: QVQLQQSGAELARPGASVKLSCKASGYTFSIHWMQWVKQRPGQGLEWIGAIYPGNGDTKYTQKFKGKATLTADKSSSTAYMQLSNLASEDSAVYYCATLYGNYEAYWGQGTLVTVSA
VL: DIVLTQSPASLSASVGETVTITCGASENIYGALNWYQRKQGKSPQLLIYGTTNLADGMSSRFSGSGSGRQYSLKISSLHPDDVATYYCQNVLTTPPWTFGGGTKLEIK
notes: also called PL114H02; Hit ID 38
With B1, the EC50 with human MICA002 on cells was 2.48 µg/mL; in the assay with human MICA004 on cells it was 3.93 µg/mL; with human MICA008 on cells [1], 1.1 µg/mL; with human MICB005 on cells, 1.42 µg/mL; in the assay with human MICA008 on cells [2], 1.85 µg/mL. The Kd in the assay with MICA002-ECD-HISAvi is 2.49 nM; with MICA004-ECD-HISAvi [3], 3.77 nM; with MICA008-ECD-HISAvi [4], 7.04 nM; with MICB005-ECD-HISAvi [5], 1.78 nM.

B2: #39 (antibody, human IgG1, V domains shown)
VH: QVQLQQSGAELVRPGTSVKVSCKASGYAFTDYLIEWVKQRPGQGLEWIGGINPGSGSTNYNEKFKGKAILTADKSSSTAYMQLSSLTSDDSAVYFCARLDGNYVGYWGQGTTLTVSS
VL: DILLTQSPASLSASVGETVTITCRASGNIHNYLAWYQQKQGKSPQLLVYHAKTLADGVPSRFSGSGSGTQYSLKINSLQPEDFGSYYCQHFWSTPWTFGGGTKLEIK
notes: also called PL114G03; Hit ID 39
For B2, the EC50 was found to be 3.68 µg/mL with human MICA002 on cells; 7.27 µg/mL with human MICA004 on cells; 1.31 µg/mL with human MICA008 on cells [1]; 1.4 µg/mL in the assay with human MICB005 on cells; 4.27 µg/mL with human MICA008 on cells [2]. Further, the Kd is 14.4 nM with MICA002-ECD-HISAvi, 139 nM with MICA004-ECD-HISAvi [3], 54.8 nM with MICA008-ECD-HISAvi [4] and 5.37 nM in the assay with MICB005-ECD-HISAvi [5].

B3: 6E1.1.12 (antibody, human IgG1, kappa, V domains shown)
VH: QGQMQQSGAELVKPGASVKLSCKTSGFTFSDNYISWLKQKPGQSLEWIAWIYAGTGGSSYNQKFRDKAQLTVDTSSRTAYMQLSSLTTEDSAIYYCARHDYYGTSGAWFAYWGRGTLVTVSA
VL: DVLMTQTPLSLPVSLGDQASISCRSSQHIVHSNENTYLEWYLQKPGQSPKLLIYKVSNRFSGVPDRFSGSGSGTDFTLKISRVEAEDLGVYYCFQGSHVPWTFGGGTKVEIKR
For the molecule B3, the EC50 is 0.882 µg/mL in the assay with human MICA002 on cells; 0.239 µg/mL in the assay with human MICA004 on cells; 0.15 µg/mL in the assay with human MICA008 on cells [1]; 0.184 µg/mL with human MICB005 on cells; 0.269 µg/mL with human MICA008 on cells [2]. Further, the results for the Kd in the assay with MICB005-ECD-HISAvi [6], in the assay with MICA009Avi and with MICB005-ECD-HISAvi [5] were 4.54 nM, 3.94 nM and 8.62 nM, respectively.

B4: #31 (antibody, human IgG1, V domains shown)
VH: EVQLQQSGPELVKPGASVKVSCKASGYAFTKYNIYWVKQSHGKSLEWIGYIDPYNGGTVQNQKFKGKATLTVDKSSSTAYMHLNSLTSEDSAVYYCATTDGYSLFTYWGQGTLVTVSS
VL: DIQMTQTTSSLSASLGDRVTISCRASQDIGNYLNWYQQKPDGTVKLLIYYTSRLHSGVPSRFSGSGSGTDYSLTISNLEQEDIATYFCQQGNTLPFTFGSGTKLEIK
notes: also called PL116D11; Hit ID 31
With B4, the EC50 turned out to be 0.232 µg/mL with human MICA002 on cells; 0.221 µg/mL with human MICA004 on cells; 0.051 µg/mL in the assay with human MICA008 on cells [1]; 0.21 µg/mL with human MICB005 on cells; 0.183 µg/mL in the assay with human MICA008 on cells [2]. Moreover, the Kd was found to be 13.2 nM with MICA002-ECD-HISAvi, 25.3 nM with MICA004-ECD-HISAvi [3], 14.4 nM with MICA008-ECD-HISAvi [4] and 15 nM with MICB005-ECD-HISAvi [5].

B5: #34 (antibody, human IgG1, V domains shown)
VH: B4 VH with E1Q, Q5K
VL: DIVLTQSPTTMAASPGEKITITCSASSSISSNYLHWYQQKPGFSPKLLIYRTSNLASGVPARFSGSGSGTSYSLTIGTMEAEDVATYYCQQGSSIPFTFGSGTKLEIK
notes: also called PL111H04; Hit ID 34
Take B5: the EC50 was 0.144 µg/mL with human MICA002 on cells; 0.202 µg/mL in the assay with human MICA004 on cells; 0.048 µg/mL in the assay with human MICA008 on cells [1]; 0.278 µg/mL in the assay with human MICB005 on cells; 0.122 µg/mL in the assay with human MICA008 on cells [2]. In addition, the dissociation constant (Kd) was 24.9 nM with MICA002-ECD-HISAvi, 44.5 nM with MICA004-ECD-HISAvi [3], 29.2 nM in the assay with MICA008-ECD-HISAvi [4] and 38 nM with MICB005-ECD-HISAvi [5].

B6: #40 (antibody, human IgG1, V domains shown)
VH: B4 VH with E1Q, Q60Y, S118A
VL: DIQMTQTTSSLSASLGDRVTITCSAGQGINNYLNWYQQKPDGTVKLLIFYTSSLQSGVPSRFSGSGSGADYSLTISNLEPEDIATYYCQQYSKLPLTFGAGTKLELK
notes: also called PL113C03; Hit ID 40
B6: the EC50 was 0.176 µg/mL with human MICA002 on cells; 0.306 µg/mL with human MICA004 on cells; 0.085 µg/mL with human MICA008 on cells [1]; 0.445 µg/mL with human MICB005 on cells; 0.183 µg/mL with human MICA008 on cells [2]. Also, the Kd with MICA002-ECD-HISAvi stood at 13.9 nM; in the assay with MICA004-ECD-HISAvi [3] it was 30.4 nM; with MICA008-ECD-HISAvi [4], 20.5 nM; with MICB005-ECD-HISAvi [5] it was 45.8 nM.

B7: #36 (antibody, human IgG1, V domains shown)
VH: B4 VH with E1Q, Q60Y, S118A
VL: B4 VL with G30S
notes: also called PL116H11; Hit ID 36
For B7, the EC50 with human MICA002 on cells was 0.2 µg/mL; in the assay with human MICA004 on cells, 0.248 µg/mL; in the assay with human MICA008 on cells [1], 0.063 µg/mL; with human MICB005 on cells, 0.249 µg/mL; in the assay with human MICA008 on cells [2] it was 0.189 µg/mL. Further, the Kd came out at 20.7 nM with MICA002-ECD-HISAvi, 40.1 nM with MICA004-ECD-HISAvi [3], 21.2 nM with MICA008-ECD-HISAvi [4] and 23.1 nM with MICB005-ECD-HISAvi [5].

B8: B10G5 (antibody, human IgG1, kappa, V domains shown)
VH: EVQLEESGPGLVKPSQSLSLTCTVTGYSITSDYAWNWIRQFPGNKLEWMGYISYSGSTNYNPSLKSRISITRDTSKNQFFLQLNSVITEDTATYYCARGGTYFDYWGQGTTLTVSS
VL: DIVLTQTTSYLSVSLGGRVTIACKASAHINNWLAWYQQKPGNAPRLLISDATSLETGVPSRFSGSGSGKDYTLSITSLQTEDVATYYCQHYWSTPWTFGGGTKLEIKR
notes: also called B10G5-2; P2B10G5
In the case of B8, the Kd worked out at 1.16 nM with MICA004-ECD-HISAvi [7]; 0.625 nM with MICA008-ECD-HISAvi [8]; 1.35 nM with MICB005-ECD-HISAvi [6]; 0.716 nM with MICA009Avi; 6.92 nM with MICA004-ECD-HISAvi [3]; 0.846 nM with MICA008-ECD-HISAvi [4]. In the assay with MICB005-ECD-HISAvi [5], this molecule came in with a Kd of 2.27 nM. For the same molecule, the binding result in the assay with MICA002-ECD-HISAvi is on record as “no binding”.

The record behind these values is patent publication US20250368742A1 (D2M BIOTHERAPEUTICS, published 2025).
